Among the data in doi:10.1101/2024.11.26.625467 are stoichiometry N values, retold here.

As usually defined, the stoichiometry N is a count of units in the complex or per binding partner.

For this assay, the target named is KS17 N2 NA (neuraminidase head of H3N2 A/Kansas/14/2017) (influenza A virus H3N2 A/Kansas/14/2017). The assay is described as follows: cryo-EM structure.

For the substance “KS17 N2 NA (neuraminidase head of H3N2 A/Kansas/14/2017) (domain or fragment)”, the stoichiometry N turned out to be 4.
